Assay results reported in patent US20170291948A1 (SAMSUNG LIFE PUBLIC WELFARE FOUNDATION, published 2017).

T1: human NRP1 protein (human, UniProt O14786-2 22-644, limits assumed)
T1 construct: Protein used for ELISA coating (200 ng per well) and SPR; also called Neuropilin 1
T1 sequence (looked up): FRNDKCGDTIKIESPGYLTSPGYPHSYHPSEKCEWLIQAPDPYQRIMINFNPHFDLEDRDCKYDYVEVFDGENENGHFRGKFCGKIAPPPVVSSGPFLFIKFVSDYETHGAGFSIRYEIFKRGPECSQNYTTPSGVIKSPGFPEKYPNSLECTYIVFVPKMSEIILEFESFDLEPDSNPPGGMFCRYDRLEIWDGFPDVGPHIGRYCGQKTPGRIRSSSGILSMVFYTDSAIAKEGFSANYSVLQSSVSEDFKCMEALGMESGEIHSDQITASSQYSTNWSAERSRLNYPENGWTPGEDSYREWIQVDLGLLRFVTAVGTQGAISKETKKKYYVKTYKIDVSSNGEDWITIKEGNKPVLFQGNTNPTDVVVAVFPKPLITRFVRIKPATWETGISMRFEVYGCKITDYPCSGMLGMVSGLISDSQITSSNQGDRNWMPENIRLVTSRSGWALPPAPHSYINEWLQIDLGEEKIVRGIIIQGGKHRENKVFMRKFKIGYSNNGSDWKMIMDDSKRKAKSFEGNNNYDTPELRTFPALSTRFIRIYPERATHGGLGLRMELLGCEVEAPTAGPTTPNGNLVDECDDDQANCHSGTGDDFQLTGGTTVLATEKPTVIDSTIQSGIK


How the values were obtained:
[1] = target: NRP1 expressed on the surface of cancer cells (NRP1-overexpressing patient-derived cells); U87MG glioblastoma … (human, UniProt O14786 22-923); experiment: cell-based or functional assay
[2] = target: T1, human NRP1 protein; experiment: IgG on human NRP1; text says ELISA and SPR, the legend of FIG. 14 says ELISA

inhibition of tumor cells migration in patient-derived cells [1] | Kd [2] | Binder
> 50% |  | IRCR-101 (3H10) anti-NRP1 IgG (antibody, V domains shown) VH: EVQLLESGGGLVQPGGSLRLSCAASGFTFSSYYMSWVRQAPGKGLEWVSAISPGSSNKYYADSVKGRFTISRDNSKNTLYLQMNSLRAEDTAVYYCARRKYMFDYWGQGTLVTVSS VL: QSVLTQPPSASGTPGQRVTISCTGSSSNIGNNDVYWYQQLPGTAPKLLIYSDSNRPSGVPDRFSGSKSGTSASLAISGLRSEDEADYYCASWDSSLSGYVFGGGTKLTVL
> 50% |  | 1A03 anti-NRP1 IgG (antibody, V domains shown) VH: EVQLLESGGGLVQPGGSLRLSCAASGFTFSSYYMSWVRQAPGKGLEWVSAISPGSSNKYYADSVQGRFTISRDNSKNTLYLQMNSLRAEDTAVYYCARRKKSFDYWGQGTLVTVSS VL: QSVLTQPPSASGTPGQRVTISCSGPSSNIGNNDVSWYQQLPGTAPKLLIYSDNNRPSGVPDRFSGSKSGTSASLAISGLRSEDEADYYCGAWVASLSAYVFGGGTKLTVL
40% | 0.6 nM | 4F12 anti-NRP1 IgG (antibody, V domains shown, scFv converted to IgG and made in the Expi 293F system, 150 kD; also called 4F12 antibody) VH: EVQLLESGGGLVQPGGSLRLSCAASGFTFSGYAMSWVRQAPGKGLEWVSGISPGSGSTYYADSVKGRFTISRDNSKNTLYLQMNSLRAEDTAVYYCAKRKTRFDYWGQGTLVTVSS VL: not shown
